Results on three molecules are retold here after patent US20200317768A1 (published 2020).

In assay [1] the target is T1, human FcγRIIaR extracellular domain, His-tagged (human, UniProt P12318 34-217).
T1 construct: also called human FcγRIIa (type R); FcgRIIaR
T1 chain: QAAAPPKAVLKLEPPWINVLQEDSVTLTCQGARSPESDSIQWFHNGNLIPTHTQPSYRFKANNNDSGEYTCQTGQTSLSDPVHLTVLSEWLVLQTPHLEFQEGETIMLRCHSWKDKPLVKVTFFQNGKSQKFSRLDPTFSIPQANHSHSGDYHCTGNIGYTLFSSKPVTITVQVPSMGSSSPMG
The experiment in a line: SPR, antibody captured, FcgR analyte. As for the experimental part:
(§1) The kinetic analysis of interactions between these antibodies and FcγR was carried out using BIACORE® T200 or BIACORE® 4000 (GE Healthcare). HBS-EP+ (GE Healthcare) was used as the running buffer, and the measurement temperature was set to 25° C. A chip produced by immobilizing Protein A. Protein A/G or mouse anti-human IgG kappa light chain (BD Biosciences) onto a Series S Sensor Chip CM4 or CM5 (GE Healthcare) by the amine-coupling method was used. […] After the measurement, the antibody captured on the chip was washed off by allowing reaction with 10 mM glycine-HCl, pH1.5 and 25 mM NaOH so that the chip was regenerated and used repeatedly. The sensorgrams obtained as measurement results were analyzed by the 1:1 Langmuir binding model using the BIACORE® Evaluation Software to calculate the binding rate constant ka (L/mol/s) and dissociation rate constant kd (l/s), and the dissociation constant KD (mol/L) was calculated from these values. […] Regarding such interactions, KD values were calculated using the following 1:1 binding model described in BIACORE® T100 Software Handbook BR1006-48 Edition AE.
(§2) The behavior of interacting molecules according to the 1:1 binding model on BIACORE® can be described by Equation 1: Req=C·R max/(KD+C)+RI, wherein, Req is a plot of steady-state binding levels to analyte concentration. C is concentration, RI is bulk refractive index contribution in the sample, and Rmax is analyte binding capacity of the surface. When this equation is rearranged, KD can be expressed as Equation 2: KD=C·Rmax/(Req−RI)−C. KD can be calculated by substituting the values of Rmax, RI, and C into Equation 1 or Equation 2. From the current measurement conditions, RI=0, C=2 μmol/L can be used.

Assay [2] deals with T2, human FcγRIIaH extracellular domain, His-tagged (human, UniProt P12318 34-217).
T2 construct: also called human FcγRIIa (type H); FcgRIIaH
T2 sequence: T1 chain with R134H
The assay is described as follows: SPR, antibody captured, FcgR analyte. The procedure:
as §1, §2

Assay [3] concerns the target T3, human FcγRIIb extracellular domain, His-tagged (human, UniProt P31994 43-217).
T3 construct: also called FcgRIIb (human)
T3 sequence: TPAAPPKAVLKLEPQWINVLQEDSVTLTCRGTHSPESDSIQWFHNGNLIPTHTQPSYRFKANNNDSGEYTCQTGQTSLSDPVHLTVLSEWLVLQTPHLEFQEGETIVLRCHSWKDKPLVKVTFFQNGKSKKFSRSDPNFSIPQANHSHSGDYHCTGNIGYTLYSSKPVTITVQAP
The experiment in a line: SPR, antibody captured, FcgR analyte. The procedure:
as §1, §2

Assay [4] concerns the target T4, cynomolgus monkey FcγRIIa2 extracellular domain, His-tagged (cynomolgus monkey).
T4 construct: also called cyno FcγRIIa2; cynoFcgRIIa2
T4 chain: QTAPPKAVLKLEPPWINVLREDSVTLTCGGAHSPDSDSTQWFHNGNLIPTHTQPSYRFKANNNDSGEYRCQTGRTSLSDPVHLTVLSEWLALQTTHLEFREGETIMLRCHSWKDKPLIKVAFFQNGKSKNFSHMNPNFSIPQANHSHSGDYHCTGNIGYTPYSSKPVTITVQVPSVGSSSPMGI
The experiment in a line: SPR, antibody captured, FcgR analyte. As for the experimental part:
as §1, §2

Assay [5] addresses T5, cynomolgus monkey FcγRIIa1 extracellular domain, His-tagged (cynomolgus monkey).
T5 construct: also called cyno FcγRIIa1; cynoFcgRIIa1
T5 chain: T4 chain with T95P, A121T, K127I, S128A, N130K, N135D, Q142R
The experiment in a line: SPR, antibody captured, FcgR analyte. As for the experimental part:
as §1, §2
A general note: In SPR one partner is held on a chip, and binding of the other changes the refractive index at the surface.

Assay [6] deals with T6, cynomolgus monkey FcγRIIb extracellular domain, His-tagged (cynomolgus monkey).
T6 construct: also called cyno FcγRIIb; cynoFcγRIIb
T6 chain: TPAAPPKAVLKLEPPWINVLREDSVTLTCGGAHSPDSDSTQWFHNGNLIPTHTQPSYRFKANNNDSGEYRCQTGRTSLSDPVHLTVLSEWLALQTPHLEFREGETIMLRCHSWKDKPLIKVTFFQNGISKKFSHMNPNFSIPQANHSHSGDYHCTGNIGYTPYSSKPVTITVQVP
The experiment in a line: SPR, antibody captured, FcgR analyte. As for the experimental part:
as §1, §2

Assay [7] concerns the target T7, cynomolgus monkey FcγRIIIaS extracellular domain, His-tagged (cynomolgus monkey, UniProt Q8SPW2 21-206 at identity 1.00)).
T7 construct: also called cyno FcγRIIIaS; cynoFcγRIIIaS
T7 chain: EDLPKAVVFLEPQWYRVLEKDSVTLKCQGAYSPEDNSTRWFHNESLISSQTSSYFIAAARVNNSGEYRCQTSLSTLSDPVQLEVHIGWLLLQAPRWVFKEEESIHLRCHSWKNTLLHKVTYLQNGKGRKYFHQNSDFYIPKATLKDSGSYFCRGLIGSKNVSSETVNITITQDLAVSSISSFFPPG
The assay is described as follows: SPR, antibody captured, FcgR analyte. As for the experimental part:
as §1, §2

Assay [8] addresses T8, cynomolgus monkey FcγRIIa3 extracellular domain, His-tagged (cynomolgus monkey).
T8 construct: also called cyno FcγRIIa3; cynoFcgRIIa3
T8 chain: T4 chain with K127I, N130K, H133P, Q142R
The experiment in a line: SPR, antibody captured, FcgR analyte. The procedure:
as §1, §2

In assay [9] the target is T9, human FcγRIIIaV extracellular domain, His-tagged (human, UniProt P08637 17-208).
T9 construct: also called FcgRIIIaV
T9 sequence (P08637 17-208 F176V): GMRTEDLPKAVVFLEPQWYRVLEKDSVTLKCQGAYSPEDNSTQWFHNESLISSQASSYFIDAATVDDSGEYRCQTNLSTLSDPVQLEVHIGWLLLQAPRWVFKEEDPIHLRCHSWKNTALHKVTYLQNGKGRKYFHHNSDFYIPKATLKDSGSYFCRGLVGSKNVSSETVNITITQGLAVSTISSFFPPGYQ
The assay is described as follows: SPR, antibody captured, FcgR analyte. The procedure:
as §1, §2

Assay [10] deals with T2, human FcγRIIaH extracellular domain, …. The experiment in a line: SPR; KD of SG1 / KD of variant.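 Also: relative to parent M103205H795-SG1 carrying the SG1 human heavy chain constant region.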
In assay [11] the target is T3, human FcγRIIb extracellular domain, …. The experiment in a line: SPR; KD of SG1 / KD of variant.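 Also: relative to parent M103205H795-SG1 carrying the SG1 human heavy chain constant region.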
The target in assay [12] is T4, cynomolgus monkey FcγRIIa2 …. The experiment in a line: SPR; KD of SG1 / KD of variant.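 Also: relative to parent M103205H795-SG1 carrying the SG1 human heavy chain constant region.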
Assay [13] deals with T5, cynomolgus monkey FcγRIIa1 …. The assay is described as follows: SPR; KD of SG1 / KD of variant.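 Also: relative to parent M103205H795-SG1 carrying the SG1 human heavy chain constant region.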
Assay [14] deals with T6, cynomolgus monkey FcγRIIb extracellular …. The experiment in a line: SPR; KD of SG1 / KD of variant.
Assay [15] has as its target T7, cynomolgus monkey FcγRIIIaS …. The experiment in a line: SPR; KD of SG1 / KD of variant.
In assay [16] the target is T8, cynomolgus monkey FcγRIIa3 …. The experiment in a line: SPR; KD of SG1 / KD of variant.
Assay [17] concerns the target T9, human FcγRIIIaV extracellular domain, …. The assay is described as follows: SPR; KD of SG1 / KD of variant.

Where a chain is given by its changes, count along the chain named.

One may read the Kd as the free concentration of one partner at which half of the binding sites on the other are occupied at equilibrium, for simple one-to-one binding.

B1: M103205H795-MY012/M103202L889-SK1 (antibody, human IgG1, kappa)
heavy: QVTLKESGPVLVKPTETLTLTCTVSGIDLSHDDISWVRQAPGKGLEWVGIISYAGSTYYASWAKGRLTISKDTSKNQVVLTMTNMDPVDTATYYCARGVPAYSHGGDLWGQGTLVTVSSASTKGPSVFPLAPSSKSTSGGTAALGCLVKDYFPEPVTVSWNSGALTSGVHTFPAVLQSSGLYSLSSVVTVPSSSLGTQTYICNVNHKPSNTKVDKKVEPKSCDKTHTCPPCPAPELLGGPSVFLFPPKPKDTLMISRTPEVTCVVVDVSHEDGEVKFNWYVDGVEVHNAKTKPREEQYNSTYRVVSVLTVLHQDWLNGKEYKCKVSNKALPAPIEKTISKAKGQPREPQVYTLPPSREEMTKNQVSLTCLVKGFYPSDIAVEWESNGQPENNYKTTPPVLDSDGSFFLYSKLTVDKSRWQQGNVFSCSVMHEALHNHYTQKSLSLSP
light: DIVMTQSPATLSLSPGERATLSCTSSQSVYHANWLSWFQQKPGQPPKLLIYWASTLAYGVPSRFSGSGSGTDFTLTISSLQPEDAATYYCAGGYGGGRYAFGQGTKVEIKRTVAAPSVFIFPPSDEQLKSGTASVVCLLNNFYPREAKVQWKVDNALQSGNSQESVTEQDSKDSTYSLSSTLTLSKADYEKHKVYACEVTHQGLSSPVTKSFNRGEC
notes: Put into M103205H795-SG1
Turning to B1, the equilibrium dissociation constant (Kd) was 230 nM in [1]; 440 nM in assay [2]; 900 nM in [3]; 2300 nM in assay [4]; 2100 nM in assay [5]; 1100 nM in assay [6]. Besides, the results for the Kd in assay [7], in assay [8] and in assay [9] were 200 nM, 7.9 µM and 480 nM, respectively. Besides, the “KD fold (SG1 = 1)” value in assay [10] was 1.6 fold; in [11] it was 5.3 fold; in assay [12], 2.2 fold; in assay [13] it was 1.5 fold; in [14], 1.6 fold; in assay [15] it was 1.8 fold. The “KD fold (SG1 = 1)” value in assay [16] amounted to 2.2 fold; in assay [17], 1.69 fold.

B2: M103205H795-MY061/M103202L889-SK1 (antibody, human IgG1, kappa)
heavy: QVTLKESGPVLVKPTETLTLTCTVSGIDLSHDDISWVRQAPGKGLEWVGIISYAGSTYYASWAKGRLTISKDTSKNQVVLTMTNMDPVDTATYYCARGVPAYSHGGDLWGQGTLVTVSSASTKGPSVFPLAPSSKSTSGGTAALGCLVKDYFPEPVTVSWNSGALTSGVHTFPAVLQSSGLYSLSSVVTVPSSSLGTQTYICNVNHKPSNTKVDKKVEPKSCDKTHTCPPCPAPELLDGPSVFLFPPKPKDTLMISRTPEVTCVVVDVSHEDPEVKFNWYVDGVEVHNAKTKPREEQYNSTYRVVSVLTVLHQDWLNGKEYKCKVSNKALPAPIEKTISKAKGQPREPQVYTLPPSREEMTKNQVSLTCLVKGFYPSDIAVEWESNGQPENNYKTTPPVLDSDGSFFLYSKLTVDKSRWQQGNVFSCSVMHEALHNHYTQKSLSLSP
light: B1 light
notes: Substitution put into M103205H795-SG1
For B2, the Kd in [1] was 1300 nM; in assay [2] it was 1400 nM; in assay [3], 2500 nM; in assay [5], 6500 nM; in [6], 4200 nM; in assay [7], 3400 nM. Also, the values for the dissociation constant Kd in assay [8] and in [9] were 18 µM and 3000 nM, respectively. Besides, the “KD fold (SG1 = 1)” value was 0.5 fold in assay [10]; 1.8 fold in assay [11]; 0.8 fold in assay [12]; 0.5 fold in [13]; 0.6 fold in assay [14]; 0.11 fold in assay [15]. The results for the “KD fold (SG1 = 1)” value in [16] and in assay [17] were 0.5 fold and 0.27 fold, respectively.

B3: M103205H795-MY017/M103202L889-SK1 (antibody, human IgG1, kappa)
heavy: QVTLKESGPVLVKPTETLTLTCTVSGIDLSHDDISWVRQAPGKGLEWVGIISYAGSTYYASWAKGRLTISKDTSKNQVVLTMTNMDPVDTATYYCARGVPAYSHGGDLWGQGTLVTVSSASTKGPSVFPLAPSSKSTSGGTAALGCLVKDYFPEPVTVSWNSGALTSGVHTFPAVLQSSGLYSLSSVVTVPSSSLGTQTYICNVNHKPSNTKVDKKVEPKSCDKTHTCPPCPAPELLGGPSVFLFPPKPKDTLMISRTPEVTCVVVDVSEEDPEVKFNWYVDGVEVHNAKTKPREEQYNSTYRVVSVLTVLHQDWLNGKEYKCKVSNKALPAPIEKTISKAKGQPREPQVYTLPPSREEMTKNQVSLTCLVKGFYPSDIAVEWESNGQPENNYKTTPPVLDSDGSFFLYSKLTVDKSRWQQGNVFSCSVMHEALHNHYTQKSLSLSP
light: B1 light
notes: as for B2
Consider B3, for which the Kd in [1] is 280 nM; in assay [2], 450 nM; in assay [3], 940 nM; in assay [4] it was 2900 nM; in assay [5], 2700 nM; in [6] it was 580 nM. Also, the equilibrium dissociation constant (Kd) was 98 nM in assay [7], 5.5 µM in assay [8] and 140 nM in assay [9]. For the same molecule, the “KD fold (SG1 = 1)” value in assay [10] worked out at 1.5 fold; in [11] it was 4.9 fold; in [12] it was 1.8 fold; in assay [13], 1.2 fold; in assay [14], 2.6 fold; in assay [15] it was 3.67 fold. Further, the figures for the “KD fold (SG1 = 1)” value in [16] and in assay [17] were 3.2 fold and 5.79 fold, respectively.
